Data reported in patent publication US20260144882A1, “ANTI-NECTIN-4 ANTIBODY DRUG CONJUGATE AND USE THEREOF” (Bio-Thera Solutions, Ltd., priority 2022, published 2026).
Numbering of substitutions follows the chain as printed.

B1: 1G8-1G3: VH SEQ ID NO: 98 (antibody, V domains shown)
VH: EVQLVESGGGLVQPGGSLRLSCAASGFNFGTYAMSWVRQAPGKGLEWVSRISGISAGTNYADSVKGRFTISRDNSKNTLYLQMNSLRAEDTAVYYCARQTEDRSYGYDLDYWGQGTLVTVSS
B2: 1G8-1E10: VH SEQ ID NO: 90 (antibody, V domains shown)
VH: B1 VH with F27D, N28S, G30S, I54S, S55G, A56D, T58K, N59D
B3: 1G8-2B3: VH SEQ ID NO: 109 (antibody, V domains shown)
VH: B1 VH with F27Y, G30T, Y32S, S52Y, G53Q, I54D, A56S, G57T, N59D

Each molecule was assayed against T1, hNectin-4-His (human Nectin-4 extracellular antigen) (Homo sapiens, UniProt Q96NY8) (assay: SPR (BIAcore) affinity assay). Conditions: Table 13.
T1 construct: made in house
T1 sequence (Q96NY8 with tags, fused parts or gaps): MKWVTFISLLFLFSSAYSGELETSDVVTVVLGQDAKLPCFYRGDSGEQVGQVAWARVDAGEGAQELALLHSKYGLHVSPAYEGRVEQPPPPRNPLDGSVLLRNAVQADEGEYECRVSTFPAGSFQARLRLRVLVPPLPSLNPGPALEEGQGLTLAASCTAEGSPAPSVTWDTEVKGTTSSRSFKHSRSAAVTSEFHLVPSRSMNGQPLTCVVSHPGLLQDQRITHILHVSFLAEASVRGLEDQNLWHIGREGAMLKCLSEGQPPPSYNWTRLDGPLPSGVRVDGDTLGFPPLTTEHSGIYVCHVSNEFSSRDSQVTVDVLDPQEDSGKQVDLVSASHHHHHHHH
Type: binding
Method: In this study, the affinity of the antibodies for the human Nectin-4 extracellular antigen was detected by surface plasmon resonance (SPR) technique (BIAcore: GE Healthcare, T200).
Capture was performed using a Protein A chip (Cat #29127556, GE Healthcare), and 5 µg/mL antibody dilutions (in HBS-EP+(10×): GE Healthcare, Cat #BR-1006-69, with a working concentration of 1×) were directed through the experimental flow channels (Fc2 and Fc4) at a flow rate of 10 μL/min for 10 s; then, the flow rate was adjusted to 30 μL/min, the hNectin-4-His dilutions at different concentrations (0 nM, 1.23 nM, 3.7 nM, 11.1 nM, 33.3 nM, and 100 nM) were sequentially added, and simultaneously directed through the surfaces of the experimental flow channels (Fc2 and Fc4) and reference flow channels (Fc1 and Fc3) with an association time of 120 s and a dissociation time of 180 s, and finally, the chip was regenerated in Glycine 1.5.

B1 and B2 are within 1.5-fold of each other in “ka” value: 471000 M⁻¹ s⁻¹ for the first, 665000 M⁻¹ s⁻¹ for the second.

B3 was tested, and the “ka” value was 742000 M⁻¹ s⁻¹.

Going from B1 to B2, the “kd” value falls from 0.00141 s⁻¹ to 0.00087 s⁻¹ (1.6-fold).

With B3 the “kd” value was 0.00147 s⁻¹.
